# Assay results published in patent US20090022714A1 (published 2009).
# Substitutions are numbered along the chain they refer to.
# B1: human anti-KDR (VEGFR-2) Fab D2C6 (Fab, V domains shown)
# VH: EVQLVQSGGGLVKPGGSLRLSCAASGFTFSSYSMNWVRQAPGKGLEWVSSISSSSSYIYYADSVKGRFTISRDNAKNSLYLQMNSLRAEDTAVYYCARVTDAFDIWGQGTMVTVSS
# VL: EIVMTQSPATLSLSPGERATLSCRASQSVSSYLAWYQQKPGQAPRLLIYDSSNRATGIPARFSGSGSGTDFTLTISSLEPEDFATYYCLQHNTFPPTFGQGTKVEIK
# notes: soluble Fab from E. coli HB2151; also called Hu-2C6 Fab
# B2: human anti-KDR (VEGFR-2) Fab D2H2 (Fab, V domains shown)
# VH: B1 VH with N77D
# VL: DIQLTQSPSSVSASVGDRVTITCRASQGISSRLAWYQQKPGKAPKLLIYAASSLQTGVPSRFSGSGSGTDFTLTISSLQPEDFATYYCQQANRFPPTFGPGTKVDIK
# notes: soluble Fab from E. coli HB2151; also called Hu-2H2 Fab
# B3: human anti-KDR (VEGFR-2) Fab D1H4 (Fab, V domains shown)
# VH: B1 VH
# VL: QSALTQPASLSGSPGQSITISCAGTTTDLTYYDLVSWYQQHPGQAPKLVIYDGNKRPSGVSNRFSGSKSGNTASLTISGLQAEDEADYYCNSYVSSRFYVFGTGTKVTVL
# notes: soluble Fab from E. coli HB2151; also called Hu-1H4 Fab
# B4: human anti-KDR (VEGFR-2) Fab D1F7 (Fab, V domains shown)
# VH: EVQLVQSGAEVKKPGASVKVSCKASGGTFSSYAISWVRQAPGQGLEWMGGIIPIFGTANYAQKFQGRVTFTADKSTSTAYMELRSLRSDDTAVYYCARGYDYYDSSGVASPFDYWGQGTLVTVSS
# VL: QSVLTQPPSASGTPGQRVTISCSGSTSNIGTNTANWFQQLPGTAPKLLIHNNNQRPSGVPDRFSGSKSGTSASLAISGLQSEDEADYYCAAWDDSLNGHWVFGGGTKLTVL
# notes: soluble Fab from E. coli HB2151; also called DIF7; Hu-1F7 Fab
# B5: human Fab SA1 (Fab, V domains shown)
# VH: B1 VH
# VL: QSVVTQPPSVSGAPGQRVTISCTGSHSNFGAGTDVHWYQHLPGTAPRLLIHGDSNRPSGVPDRFSGSRSGTSASLAITGLRVEDEADYYCQSYDYGLRGWVFGGGTKLTVL
# notes: from the second library (D2C6 heavy chain with shuffled light chains)
# B6: human Fab SD2 (Fab, V domains shown)
# VH: B1 VH
# VL: DIELTQSPSSVSASVGDRVTLTCRASQSIKRWLAWYQQKPGKAPRLLIYAASTLQSGVPSRFSGGGSGTDFTLTINSLQPEDFAIYYCQQANSFPPTFGPGTKVDIK
# notes: from the second library
# B7: human Fab SA3 (Fab, V domains shown)
# VH: B1 VH
# VL: DVVMTQSPSSLSASVGDRVTITCRASQNINNYLNWYQQKPGKAPKLLIYAASTLQSGVPSRFSGSGSGTDFTLTITSLQPEDSATYYCQQYSRYPPTFGGGTKVEIT
# notes: from the second library
# B8: human Fab SB5 (Fab, V domains shown)
# VH: B1 VH
# VL: QAVLTQPSSVSGAPGQRVTISCTGQSSNIGADYDVHWYQQFPGTAPKLLIYGHNNRPSGVPDRFSGSKSGTSVSLVISGLQAEDEADYYCQSYDSSLSGLVFGGGTKVTVL
# notes: from the second library
# B9: human Fab SF2 (Fab, V domains shown)
# VH: B1 VH
# VL: QSVVTQPPSVSGAPGQRVTISCTGSSSNIGTGYDVHWYQQVPGSAPKLLIYAYTNRPSGVPDRFSGSKSGMSASLVIGGLQAEDEADYYCQSFDDSLNGLVFGPGTSVTVL
# notes: from the second library
# B10: human Fab SB10 (Fab, V domains shown)
# VH: B1 VH
# VL: QSALTQPASVSGSRGQSITLSCTGSSTDVGNYNYISWYQQHPGQAPKLLIYDVTSRPSGVSDRFSGSKSGLTASLTISGLQPEDEADYYCNSYSATDTLVFGGGTKLTVL
# notes: from the second library
# B11: human Fab 1121 (Fab, V domains shown)
# VH: B1 VH
# VL: DIQMTQSPSSVSASIGDRVTITCRASQGIDNWLGWYQQKPGKAPKLLIYDASNLDTGVPSRFSGSGSGTYFTLTISSLQAEDFAVYFCQQAKAFPPTFGGGTKVDIK
# notes: from the second library
# B12: human Fab SD5 (Fab, V domains shown)
# VH: B1 VH
# VL: QSVVTQPPSVSGAPGQRVTISCSGSRSNIGAHYEVQWYQQFPGAAPKLLIYGDTNRPSGVPDRFSASHSGTSASLAITGLQAEDEADYYCQSYDTSLRGPVFGGGTKLTVL
# notes: from the second library
# B13: human Fab SC7 (Fab, V domains shown)
# VH: B1 VH
# VL: DIQLTQSPSSVSASVGDSVTITCRASQDISSWLAWYQQKPGEAPKLLIYAASLLQSGVPSRFSGSGSGTDFALTINSLQPEDFATYFCQQADSFPPTFGQGTRLEIK
# notes: from the second library
# B14: human Fab SF7 (Fab, V domains shown)
# VH: B1 VH
# VL: B5 VL with V4L, S54T, N55H, P61A, T71A
# notes: from the second library
# Biological target: T1, soluble fusion protein KDR (VEGFR-2)-AP (human, UniProt P35968 20-764)
# T1 construct: extracellular domain; expressed in NIH 3T3 cells; also called KDR-AP; KDR (VEGFR-2)-alkaline phosphatase fusion protein; not shown: human placental alkaline phosphatase (AP), vector AP-Tag
# T1 sequence (P35968 20-764): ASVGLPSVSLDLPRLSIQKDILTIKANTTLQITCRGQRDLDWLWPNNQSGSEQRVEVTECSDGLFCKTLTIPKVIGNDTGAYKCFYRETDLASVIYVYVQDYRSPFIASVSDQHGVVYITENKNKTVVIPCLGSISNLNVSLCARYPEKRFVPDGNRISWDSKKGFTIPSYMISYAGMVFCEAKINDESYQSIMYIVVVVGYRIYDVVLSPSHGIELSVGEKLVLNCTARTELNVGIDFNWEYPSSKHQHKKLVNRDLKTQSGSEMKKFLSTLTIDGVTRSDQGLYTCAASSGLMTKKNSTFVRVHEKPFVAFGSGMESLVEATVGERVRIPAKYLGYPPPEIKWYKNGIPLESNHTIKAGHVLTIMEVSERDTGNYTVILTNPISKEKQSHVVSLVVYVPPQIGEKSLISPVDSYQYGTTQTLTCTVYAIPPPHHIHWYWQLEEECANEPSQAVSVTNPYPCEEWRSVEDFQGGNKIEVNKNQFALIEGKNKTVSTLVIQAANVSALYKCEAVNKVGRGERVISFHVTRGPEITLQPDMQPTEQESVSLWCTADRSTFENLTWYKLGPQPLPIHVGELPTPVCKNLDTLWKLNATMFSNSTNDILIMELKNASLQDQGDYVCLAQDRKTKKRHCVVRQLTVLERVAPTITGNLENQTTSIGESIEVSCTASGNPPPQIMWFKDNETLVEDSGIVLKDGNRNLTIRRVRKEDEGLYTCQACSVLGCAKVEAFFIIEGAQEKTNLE
# Experiment: competitive ELISA: KDR-AP binding to immobilized VEGF165
# Experimental: In a direct binding assay, various amounts of soluble Fab proteins were added to KDR (VEGFR-2)-coated 96-well Maxi-sorp microtiter plates and incubated at RT for 1 h, after which the plates were washed 3 times with PBST. The plates were then incubated at RT for 1 h with 100 Φl of a rabbit anti-human Fab antibody-HRP conjugate (Jackson ImmunoResearch Laboratory Inc., West Grove, Pa.). The plates were washed and developed following the procedure described above for the phage ELISA. […] The mixtures were then transferred to 96-well microtiter plates precoated with VEGF₁₆₅ (200 ng/well) and incubated at RT for an additional 2 h, after which the plates were washed 5 times and the substrate for AP (p-nitrophenyl phosphate, Sigma) was added. Absorbance at 405 nm was measured to quantify the bound KDR (VEGFR-2)-AP molecules (8).
row,IC50 [nM],Binder
1,~2,B1
2,~2,B2
3,~2,B3
4,~20,B4

# Biological target: human KDR (VEGFR-2), construct not stated (human, UniProt P35968 20-764, limits assumed)
# Sequence (P35968 20-764 limits assumed): as the sequence (P35968 20-764) above
# Experiment: selection from second Fab phage library
row,binding result,Binder
1,binds,B5
2,binds,B6
3,binds,B7
4,binds,B8
5,binds,B9
6,binds,B10
7,binds,B11
8,binds,B12
9,binds,B13
10,binds,B14

# Biological target: T2, soluble fusion protein Flk-1-AP (murine, UniProt P35918 20-762)
# T2 construct: expressed in NIH 3T3; not shown: alkaline phosphatase (AP)
# T2 sequence (P35918 20-762): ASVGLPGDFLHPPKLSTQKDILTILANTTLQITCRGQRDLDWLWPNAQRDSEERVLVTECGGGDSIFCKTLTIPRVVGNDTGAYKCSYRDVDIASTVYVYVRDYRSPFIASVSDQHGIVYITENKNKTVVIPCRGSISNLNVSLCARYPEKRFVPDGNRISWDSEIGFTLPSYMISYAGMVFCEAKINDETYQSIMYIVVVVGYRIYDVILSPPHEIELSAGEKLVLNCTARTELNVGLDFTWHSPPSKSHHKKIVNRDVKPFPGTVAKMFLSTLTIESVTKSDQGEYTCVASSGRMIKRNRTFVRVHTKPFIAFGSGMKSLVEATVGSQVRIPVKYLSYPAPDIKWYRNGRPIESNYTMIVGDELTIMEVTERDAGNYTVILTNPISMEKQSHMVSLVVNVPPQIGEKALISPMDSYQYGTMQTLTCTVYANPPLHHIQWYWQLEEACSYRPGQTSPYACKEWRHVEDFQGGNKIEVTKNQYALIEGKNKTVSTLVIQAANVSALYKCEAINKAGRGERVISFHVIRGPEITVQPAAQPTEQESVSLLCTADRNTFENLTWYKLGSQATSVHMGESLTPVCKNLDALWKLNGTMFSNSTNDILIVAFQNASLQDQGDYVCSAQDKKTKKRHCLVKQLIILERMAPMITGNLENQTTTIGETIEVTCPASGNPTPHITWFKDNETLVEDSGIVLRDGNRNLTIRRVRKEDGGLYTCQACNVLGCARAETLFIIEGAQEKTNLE
# Experiment: blocking of VEGF binding to Flk-1
row,IC50 [nM],Binder
1,~15,B4

# Biological target: T1, soluble fusion protein KDR (VEGFR-2)-AP
# Experiment: BIAcore, KDR-AP immobilized
# Experimental: The binding kinetics of soluble Fab proteins to KDR (VEGFR-2) were measured by surface plasmon resonance using a BIAcore biosensor (Pharmacia Biosensor). […] Sensorgrams were obtained at each concentration and were evaluated using a program, BIA Evaluation 2.0, to determine the rate constants kon and koff Kd was calculated from the ratio of rate constants koff/kon.
Kd [nM],koff [s⁻¹],kon [M⁻¹ s⁻¹],Binder
1.97,0.000538,273000,B1
3.93,0.000487,124000,B2
2.76,0.000153,55500,B3
45.2,0.00187,41400,B4

# Biological target: human KDR (VEGFR-2), cell surface-expressed (HUVEC) (human, UniProt P35968 20-1356)
# Sequence (P35968 20-1356): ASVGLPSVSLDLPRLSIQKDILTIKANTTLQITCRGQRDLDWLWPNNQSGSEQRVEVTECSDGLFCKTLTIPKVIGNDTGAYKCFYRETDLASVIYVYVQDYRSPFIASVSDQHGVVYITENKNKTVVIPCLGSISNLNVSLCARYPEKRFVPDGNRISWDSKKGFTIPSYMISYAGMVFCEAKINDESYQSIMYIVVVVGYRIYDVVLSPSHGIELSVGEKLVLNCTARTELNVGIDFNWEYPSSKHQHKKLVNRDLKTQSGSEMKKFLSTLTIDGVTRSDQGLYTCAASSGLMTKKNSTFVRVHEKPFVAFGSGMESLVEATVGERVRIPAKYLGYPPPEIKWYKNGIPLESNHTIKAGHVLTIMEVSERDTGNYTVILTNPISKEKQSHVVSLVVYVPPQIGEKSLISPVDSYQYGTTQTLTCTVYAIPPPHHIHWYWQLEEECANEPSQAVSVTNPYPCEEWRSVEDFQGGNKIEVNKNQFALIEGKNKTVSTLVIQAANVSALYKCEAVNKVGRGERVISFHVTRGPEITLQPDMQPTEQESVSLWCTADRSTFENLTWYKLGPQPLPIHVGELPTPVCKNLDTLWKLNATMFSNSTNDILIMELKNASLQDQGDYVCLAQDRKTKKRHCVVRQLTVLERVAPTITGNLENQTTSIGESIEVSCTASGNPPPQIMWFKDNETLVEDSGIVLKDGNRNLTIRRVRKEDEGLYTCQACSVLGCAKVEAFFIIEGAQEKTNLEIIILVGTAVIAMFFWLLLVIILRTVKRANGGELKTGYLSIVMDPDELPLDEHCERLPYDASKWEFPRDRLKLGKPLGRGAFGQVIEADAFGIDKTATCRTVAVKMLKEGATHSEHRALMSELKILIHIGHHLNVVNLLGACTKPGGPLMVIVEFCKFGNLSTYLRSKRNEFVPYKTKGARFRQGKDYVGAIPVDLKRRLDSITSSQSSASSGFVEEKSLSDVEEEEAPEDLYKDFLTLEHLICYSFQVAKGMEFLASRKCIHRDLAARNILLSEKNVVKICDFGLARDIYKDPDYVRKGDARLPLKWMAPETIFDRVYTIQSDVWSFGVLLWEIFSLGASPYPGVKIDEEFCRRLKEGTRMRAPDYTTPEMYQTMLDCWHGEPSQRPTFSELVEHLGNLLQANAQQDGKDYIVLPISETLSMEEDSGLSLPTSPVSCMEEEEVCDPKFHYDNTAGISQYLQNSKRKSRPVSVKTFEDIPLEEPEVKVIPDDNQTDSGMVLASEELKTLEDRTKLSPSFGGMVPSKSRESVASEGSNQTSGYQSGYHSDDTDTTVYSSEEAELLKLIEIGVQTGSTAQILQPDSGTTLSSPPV
# Experiment: cell-based or functional assay
row,"EC50, inhibition of VEGF-stimulated [3H]-TdR incorporation in HUVEC [nM]",Binder
1,~0.5,B1
2,~0.8,B2
3,~0.5,B3
4,~15,B4

# Biological target: T2, soluble fusion protein Flk-1-AP
# Experiment: ELISA on captured Flk-1-AP
row,binding result,Binder
1,no binding,B1
2,no binding,B2
3,no binding,B3
